Results as given in PMC6639331, “Reconstitution of recombinant human CCR4-NOT reveals molecular insights into regulated deadenylation”.

How the values were obtained:
[1] = target: NOT10:NOT11 (Homo sapiens, UniProt Q9H9A5;Q9UKZ1 25-707;257-498); assay: EMSA; 1 uM protein, 100 nM RNA; EMSA: 20 mM Tris/HCl pH 7.5, 10 mM NaCl, 2 mM MgCl2, 0.1% BSA, 0.1% Orange G, 3% Ficoll 400; 100 nM RNA; 10% native PAGE in TBE pH 8.3; temperature not stated; details: protein: recombinant; tags: MBP (NOT10) and C-His6 (NOT11) removed; copies: 1;1; label: 5' 6-FAM
[2] = target: T1, CAF40 module (NOT1:CAF40) (Homo sapiens, UniProt A5YKK6;Q92600 1351-1588;19-285); assay: EMSA; 25 uM protein, 100 nM RNA; EMSA: 20 mM Tris/HCl pH 7.5, 10 mM NaCl, 2 mM MgCl2, 0.1% BSA, 0.1% Orange G, 3% Ficoll 400; 100 nM RNA; 10% native PAGE in TBE pH 8.3; temperature not stated; details: protein: recombinant; tags: MBP (NOT1) and His6 (CAF40) removed; copies: 1;1; label: 5' 6-FAM
[3] = target: T1, CAF40 module (NOT1:CAF40); assay: EMSA competition; 100 uM NOT1:CAF40 + 200 uM MBP-Bam CBM L17E;M24E; almost no effect on RNA binding; EMSA: 20 mM Tris/HCl pH 7.5, 10 mM NaCl, 2 mM MgCl2, 0.1% BSA, 0.1% Orange G, 3% Ficoll 400; 100 nM RNA; 10% native PAGE in TBE pH 8.3; temperature not stated; details: protein: recombinant; tags: MBP (NOT1) and His6 (CAF40) removed; copies: 1;1; label: 5' 6-FAM

NOT10:NOT11, sequence (Q9H9A5 25-707, chain 1 of 2, other chains not shown): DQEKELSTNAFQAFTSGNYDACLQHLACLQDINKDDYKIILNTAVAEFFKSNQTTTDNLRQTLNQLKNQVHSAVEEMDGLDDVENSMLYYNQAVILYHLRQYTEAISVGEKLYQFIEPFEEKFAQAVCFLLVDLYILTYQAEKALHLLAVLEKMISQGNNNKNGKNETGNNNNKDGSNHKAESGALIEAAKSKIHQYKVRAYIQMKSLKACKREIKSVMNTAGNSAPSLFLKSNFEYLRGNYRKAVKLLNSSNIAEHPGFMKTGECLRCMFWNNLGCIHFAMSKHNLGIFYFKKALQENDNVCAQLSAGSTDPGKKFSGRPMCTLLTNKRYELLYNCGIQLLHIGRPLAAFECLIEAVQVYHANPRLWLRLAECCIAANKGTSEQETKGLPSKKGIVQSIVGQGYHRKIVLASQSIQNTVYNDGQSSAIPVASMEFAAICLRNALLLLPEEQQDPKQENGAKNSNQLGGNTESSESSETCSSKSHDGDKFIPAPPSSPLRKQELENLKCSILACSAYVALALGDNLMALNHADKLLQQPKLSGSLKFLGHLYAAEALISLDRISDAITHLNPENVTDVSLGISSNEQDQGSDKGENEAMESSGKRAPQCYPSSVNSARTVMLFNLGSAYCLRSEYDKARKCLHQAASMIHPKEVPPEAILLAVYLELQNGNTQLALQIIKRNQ
T1 sequence (A5YKK6 1351-1588, chain 1 of 2): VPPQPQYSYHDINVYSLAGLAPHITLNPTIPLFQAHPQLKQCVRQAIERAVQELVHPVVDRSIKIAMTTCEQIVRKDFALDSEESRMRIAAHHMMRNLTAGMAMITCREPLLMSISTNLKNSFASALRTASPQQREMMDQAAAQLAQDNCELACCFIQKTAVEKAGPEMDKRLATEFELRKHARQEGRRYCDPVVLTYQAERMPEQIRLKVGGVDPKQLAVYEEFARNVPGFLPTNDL
T1 sequence (Q92600 19-285, chain 2 of 2): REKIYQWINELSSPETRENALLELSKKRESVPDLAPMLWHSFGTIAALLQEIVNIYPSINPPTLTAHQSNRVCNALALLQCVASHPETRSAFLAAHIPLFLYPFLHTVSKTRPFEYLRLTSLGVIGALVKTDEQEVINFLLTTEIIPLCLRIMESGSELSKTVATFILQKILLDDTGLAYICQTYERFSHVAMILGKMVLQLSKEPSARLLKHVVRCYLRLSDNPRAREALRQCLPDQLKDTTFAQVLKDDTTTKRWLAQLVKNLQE

B1: 13+7-mer-A20 (ssRNA)
RNA: CACAUCCAACUUCUCUAAAUAAAAAAAAAAAAAAAAAAAA
B1: binds [1]; binds [2].

B2: 7-mer-A20 (ssRNA)
RNA: UCUAAAUAAAAAAAAAAAAAAAAAAAA
B2: binds [1]; binds [3].
